US20230203202A1 (DRAGONFLY THERAPEUTICS, published 2023)
Where two headings read alike, the source gives them in different places.

Tests used:
[1] = target: T1, human NKG2D (recombinant, construct not stated) (human, UniProt P26718 78-216, limits assumed); experiment: SPR, kinetics fit
T1 construct: also called hNKG2D
T1 sequence (looked up): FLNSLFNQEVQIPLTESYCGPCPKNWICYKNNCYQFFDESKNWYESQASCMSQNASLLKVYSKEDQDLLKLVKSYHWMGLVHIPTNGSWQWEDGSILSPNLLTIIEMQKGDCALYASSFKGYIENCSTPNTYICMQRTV

[2] = target: T2, Human CD16aV (human, UniProt P08637 17-208); experiment: SPR, kinetics fit
T2 construct: position 158 counts on the mature protein

[3] = target: T3, human 5T4 on the cell surface (human, UniProt Q13641 32-420); experiment: cell-based or functional assay
T3 sequence (looked up): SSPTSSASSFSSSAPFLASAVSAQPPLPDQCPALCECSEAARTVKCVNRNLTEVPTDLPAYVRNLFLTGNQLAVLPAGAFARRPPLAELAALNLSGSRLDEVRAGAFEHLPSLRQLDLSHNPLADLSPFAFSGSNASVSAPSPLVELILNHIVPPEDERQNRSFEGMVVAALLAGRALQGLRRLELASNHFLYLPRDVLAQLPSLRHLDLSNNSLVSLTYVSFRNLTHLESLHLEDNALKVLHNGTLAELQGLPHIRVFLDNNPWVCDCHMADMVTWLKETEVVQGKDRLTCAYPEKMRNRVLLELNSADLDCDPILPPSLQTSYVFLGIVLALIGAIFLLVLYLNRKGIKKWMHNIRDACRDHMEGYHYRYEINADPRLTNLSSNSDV

[4] = target: T3, human 5T4 on the cell surface; experiment: cell-based or functional assay; remark: listed apart in the source
[5] = target: T4, human NKG2D on CD8+ T cells (human, UniProt P26718 1-216); experiment: cell-based or functional assay
T4 sequence (looked up): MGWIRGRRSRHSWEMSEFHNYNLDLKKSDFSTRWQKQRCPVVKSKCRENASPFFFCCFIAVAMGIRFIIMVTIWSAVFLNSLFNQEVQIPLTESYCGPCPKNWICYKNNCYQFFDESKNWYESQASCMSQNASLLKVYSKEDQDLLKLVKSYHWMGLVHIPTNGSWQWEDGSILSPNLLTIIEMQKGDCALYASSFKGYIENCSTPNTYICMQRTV

[6] = target: T3, human 5T4 on the cell surface; experiment: flow cytometry on FaDu cells (22,000 5T4 per cell)
[7] = target: T3, human 5T4 on the cell surface; experiment: flow cytometry on 786-O cells (18,000 5T4 per cell)
[8] = target: T3, human 5T4 on the cell surface; experiment: flow cytometry on H1975 cells (22,000 5T4 per cell)
[9] = target: T3, human 5T4 on the cell surface; experiment: flow cytometry on HCC4006 cells (53,000 5T4 per cell)
[10] = target: T5, human 5T4 (SPR and epitope mapping, construct not stated) (human, UniProt Q13641 32-355, limits assumed); experiment: SPR, h5T4 binding; sample oxidised in PBS 0.02% H2O2, 24 hrs RT
T5 construct: also called h5T4
T5 sequence (looked up): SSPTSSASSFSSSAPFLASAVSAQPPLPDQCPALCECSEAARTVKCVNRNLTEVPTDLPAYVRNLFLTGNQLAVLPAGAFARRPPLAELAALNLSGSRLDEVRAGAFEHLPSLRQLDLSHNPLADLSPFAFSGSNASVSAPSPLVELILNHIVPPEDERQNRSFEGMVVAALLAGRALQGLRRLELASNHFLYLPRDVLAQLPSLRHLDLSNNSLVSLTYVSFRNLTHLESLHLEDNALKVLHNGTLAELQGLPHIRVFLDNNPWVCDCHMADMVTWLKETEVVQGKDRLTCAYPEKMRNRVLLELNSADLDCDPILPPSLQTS

[11] = target: T5, human 5T4 (SPR and epitope mapping, …); experiment: SPR, Biacore 8K, 37 °C, TriNKET captured on anti-hFc chip, pH 7.4
Experimental: Briefly, SPR was performed using a Biacore 8K instrument at physiological temperature of 37° C. Briefly, human Fc specific antibodies were covalently immobilized at a density of about 8000-10000 resonance units (RU) on carboxy methyl dextran matrix of a CM5 biosensor chip to create an anti-hFc IgG chip. Samples were injected on the anti-hFc IgG chip at a flow rate of 10 μL/min for 60 seconds. Protein was serially diluted (300 nM-0.14 nM) in three-fold dilutions with running buffer and injected at a flow rate of 30 μl/min over the captured test articles. Association was monitored for 240-300 seconds, and dissociation was monitored for 300-900 seconds. Surfaces were regenerated between cycles with three pulses of 10 mM glycine-HCl (pH 1.7) injected for 20 seconds at 100 μL/min.

[12] = target: T3, human 5T4 on the cell surface; experiment: cell binding assay on 5T4-expressing tumor cells (cell line not given)
[13] = target: T3, human 5T4 on the cell surface; experiment: as above; remark: listed apart in the source
[14] = target: T3, human 5T4 on the cell surface; experiment: flow cytometry on primary lung cancer-associated fibroblasts (Donor #377913A1), fold over background

T2 sequence (P08637 17-208 F176V): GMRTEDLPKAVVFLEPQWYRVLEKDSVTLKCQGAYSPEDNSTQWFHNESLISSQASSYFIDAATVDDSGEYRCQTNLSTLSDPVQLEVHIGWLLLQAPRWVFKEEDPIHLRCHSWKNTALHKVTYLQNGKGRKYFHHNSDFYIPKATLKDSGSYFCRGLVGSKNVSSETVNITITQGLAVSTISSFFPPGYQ

B1: AB1310/AB1783-TriNKET® (bispecific antibody, human IgG1, kappa)
chain: DIQLTQSPSSLSASVGDRVTITCRASQSVTTSNYNYMHWFQQKPGKAPKLLIKFASNLESGVPSRFSGSGSGTDFTLTISSLQPEDFATYYCQHSWEIPWTFGCGTKVEIKGGGGSGGGGSGGGGSGGGGSEVQLVESGGGLVKPGGSLRLSCAASRFTFSDFGMHWVRQAPGKCLEWVSYISSGSSTIYYADSVKGRFTISRDNAKNSLYLQMNSLRAEDTAVYYCASSQSYYRGTLDYWGQGTTVTVSSASDKTHTCPPCPAPELLGGPSVFLFPPKPKDTLMISRTPEVTCVVVDVSHEDPEVKFNWYVDGVEVHNAKTKPREEQYNSTYRVVSVLTVLHQDWLNGKEYKCKVSNKALPAPIEKTISKAKGQPREPRVYTLPPCRDELTKNQVSLTCLVKGFYPSDIAVEWESNGQPENNYKTTPPVLVSDGSFTLYSKLTVDKSRWQQGNVFSCSVMHEALHNHYTQKSLSLSPG
heavy: EVQLVESGGGLVKPGGSLRLSCAASGFTFSSYSMNWVRQAPGKGLEWVSSISSSSSYIYYADSVKGRFTISRDNAKNSLYLQMNSLRAEDTAVYYCARGAPIGAAAGWFDPWGQGTLVTVSSASTKGPSVFPLAPSSKSTSGGTAALGCLVKDYFPEPVTVSWNSGALTSGVHTFPAVLQSSGLYSLSSVVTVPSSSLGTQTYICNVNHKPSNTKVDKKVEPKSCDKTHTCPPCPAPELLGGPSVFLFPPKPKDTLMISRTPEVTCVVVDVSHEDPEVKFNWYVDGVEVHNAKTKPREEQYNSTYRVVSVLTVLHQDWLNGKEYKCKVSNKALPAPIEKTISKAKGQPREPQVCTLPPSRDELTENQVSLTCLVKGFYPSDIAVEWESNGQPENNYKTTPPVLDSDGSFFLYSWLTVDKSRWQQGNVFSCSVMHEALHNHYTQKSLSLSPG
light: DIQMTQSPSSVSASVGDRVTITCRASQGISSWLAWYQQKPGKAPKLLIYAASSLQSGVPSRFSGSGSGTDFTLTISSLQPEDFATYYCQQGVSFPRTFGGGTKVEIKRTVAAPSVFIFPPSDEQLKSGTASVVCLLNNFYPREAKVQWKVDNALQSGNSQESVTEQDSKDSTYSLSSTLTLSKADYEKHKVYACEVTHQGLSSPVTKSFNRGEC
notes: also called AB1310-TriNKET®; AB1783 10F10 F3′ LH H(T62S) CHO opt
[1]
  Kd: 370 nM
  koff: 0.088 s⁻¹
  kon: 240000 M⁻¹ s⁻¹
[2]
  Kd: 112 nM
  koff: 0.017 s⁻¹
  kon: 150000 M⁻¹ s⁻¹
[3]
  NK cell-mediated lysis of 786-O cells (DELFIA), EC50: 0.19 nM
  NK cell-mediated lysis of BT474 cells (DELFIA), EC50: 0.14 nM
  NK cell-mediated lysis of Detroit 562 cells (DELFIA), EC50: 0.23 nM
  NK cell-mediated lysis of FaDu cells (DELFIA), EC50: 0.19 nM
  NK cell-mediated lysis of H292 cells (DELFIA), EC50: 0.1 nM
  NK cell-mediated lysis of H1703 cells (DELFIA), EC50: 0.14 nM
  NK cell-mediated lysis of H1975 cells (DELFIA), EC50: 0.29 nM
  NK cell-mediated lysis of HCC4006 cells (DELFIA), EC50: 0.24 nM
  NK cell-mediated lysis of HCT116 cells (DELFIA), EC50: 0.097 nM
  NK cell-mediated lysis of HT29 cells (DELFIA), EC50: 0.42 nM
  NK cell-mediated lysis of KYSE-30 cells (DELFIA), EC50: 0.072 nM
[4]
  cynomolgus monkey NK cell activation in co-culture with H292 cells, EC50: 0.06 nM
  cynomolgus monkey NK cell activation in co-culture with KYSE-30 cells, EC50: 0.06 nM
  human NK cell activation in co-culture with H292 cells, EC50: 0.35 nM
  human NK cell activation in co-culture with KYSE-30 cells, EC50: 0.13 nM
[5]
  CD8+ T-cell lysis of BT-474 cells (Incucyte, 72 h), EC50: 0.66 nM
  CD8+ T-cell lysis of FaDu cells (Incucyte, 72 h), EC50: 0.59 nM
[6]
  EC50: 7.1 nM
[7]
  EC50: 2.7 nM
[8]
  EC50: 1.9 nM
[9]
  EC50: 7.6 nM
[10]
  Kd: 7 nM
  koff: 0.00086 s⁻¹
  kon: 120000 M⁻¹ s⁻¹
[11]
  Kd: 6.1 nM
  koff: 0.00077 s⁻¹
  kon: 130000 M⁻¹ s⁻¹
[12]
  EC50: 3.42 nM
  Max Fold Over Background (FOB): 82.8 fold over background
[13]
  EC50: 5.33 nM
  Max Fold Over Background (FOB): 85 fold over background
[14]
  EC50 (read off the curve): ~4 nM
